Source: patent publication US10647739B2, “Flavonoids O-A-glucosylated on the B cycle, method for the production thereof and uses” (Institut National de la Recherche Agronomique, priority 2014, dated 2020)
Positions count from the first letter of the chain named. Names may count otherwise.

B1: V331S: ASNp amylosucrase single mutant (protein, UniProt Q9ZEU2 1-636, looked up, variant V331S)
Amylosucrase: MLTPTQQVGLILQYLKTRILDIYTPEQRAGIEKSEDWRQFSRRMDTHFPKLMNELDSVYGNNEALLPMLEMLLAQAWQSYSQRNSSLKDIDIARENNPDWILSNKQVGGVCYVDLFAGDLKGLKDKIPYFQELGLTYLHLMPLFKCPEGKSDGGYAVSSYRDVNPALGTIGDLREVIAALHEAGISAVVDFIFNHTSNEHEWAQRCAAGDPLFDNFYYIFPDRRMPDQYDRTLREIFPDQHPGGFSQLEDGRWVWTTFNSFQWDLNYSNPWVFRAMAGEMLFLANLGVDILRMDAVAFIWKQMGTSCENLPQAHALIRAFNAVMRIAAPASFFKSEAIVHPDQVVQYIGQDECQIGYNPLQMALLWNTLATREVNLLHQALTYRHNLPEHTAWVNYVRSHDDIGWTFADEDAAYLGISGYDHRQFLNRFFVNRFDGSFARGVPFQYNPSTGDCRVSGTAAALVGLAQDDPHAVDRIKLLYSIALSTGGLPLIYLGDEVGTLNDDDWSQDSNKSDDSRWAHRPRYNEALYAQRNDPSTAAGQIYQGLRHMIAVRQSNPRFDGGRLVTFNTNNKHIIGYIRNNALLAFGNFSEYPQTVTAHTLQAMPFKAHDLIGGKTVSLNQDLTLQPYQVMWLEIA
B2: V331F: ASNp amylosucrase single mutant (protein, UniProt Q9ZEU2 1-636, looked up, variant V331F)
Amylosucrase: B1 Amylosucrase with S331F
B3: V331T: ASNp amylosucrase single mutant (protein, UniProt Q9ZEU2 1-636, looked up, variant V331T)
Amylosucrase: B1 Amylosucrase with S331T
B4: V331D: ASNp amylosucrase single mutant (protein, UniProt Q9ZEU2 1-636, looked up, variant V331D)
Amylosucrase: B1 Amylosucrase with S331D
B5: V331G: ASNp amylosucrase single mutant (protein, UniProt Q9ZEU2 1-636, looked up, variant V331G)
Amylosucrase: B1 Amylosucrase with S331G
B6: V331E: ASNp amylosucrase single mutant (protein, UniProt Q9ZEU2 1-636, looked up, variant V331E)
Amylosucrase: B1 Amylosucrase with S331E
B7: V331C: ASNp amylosucrase single mutant (protein, UniProt Q9ZEU2 1-636, looked up, variant V331C)
Amylosucrase: B1 Amylosucrase with S331C
B8: V331I: ASNp amylosucrase single mutant (protein, UniProt Q9ZEU2 1-636, looked up, variant V331I)
Amylosucrase: B1 Amylosucrase with S331I
B9: V331Y: ASNp amylosucrase single mutant (protein, UniProt Q9ZEU2 1-636, looked up, variant V331Y)
Amylosucrase: B1 Amylosucrase with S331Y
B10: V331H: ASNp amylosucrase single mutant (protein, UniProt Q9ZEU2 1-636, looked up, variant V331H)
Amylosucrase: B1 Amylosucrase with S331H
B11: V331W: ASNp amylosucrase single mutant (protein, UniProt Q9ZEU2 1-636, looked up, variant V331W)
Amylosucrase: B1 Amylosucrase with S331W

test: apigenin glucosylation acceptor reaction with recombinant glucansucrases (microplate screening); type: biochemical; conditions: sucrose 146 mM, apigenin 2.5 mM, 3% DMSO, 30° C., 24 h; HPLC-UV 340 nm peak areas
Procedure: (§1) The enzymatic extracts obtained are used to carry out the flavonoid glucosylation enzymatic screening reactions. The enzymatic activity of each centrifuged cell lysate is evaluated in the microplate format, by final weight after 30 minutes incubation in the presence of a final concentration of 146 mM of sucrose, by assaying the reducing sugars with 3,5-dinitrosalicylic acid (DNS). Finally, after dilution in ultrapure water, the absorbance is read at 540 nm.
(§2) The flavonoid acceptor reactions are then carried out in deep-well microplates, in a volume of 300 μl, at final concentrations of sucrose of 146 mM and of flavonoid of 2.5 mM (apigenin) or 5 mM (naringenin) (initially dissolved in 100% DMSO), and 140 μl of centrifuged cell lysate.
(§3) The final DMSO concentration in the reaction medium is 3% (v/v).
(§4) The incubation is carried out at 30° C. and at 700 rpm. After 24 hours, the enzymes are denatured at 95° C. for 15 minutes. These microplates are stored at −80° C. with a view to rapid evaluation of the flavonoid glucosylation by liquid-phase chromatography coupled to mass spectrometry (HPLC-MS or LC-MS).
(§5) With a view to their analyses by HPLC-MS, the extensively homogenized reaction media are diluted to 1/30th in DMSO. The separation of the flavonoids and of their glucosylated forms is carried out in reverse phase with a ProntoSlL Eurobond® 53×3.0 mm 120-3-C18-AQ column (porosity of 120 Å, particle size of 3 μm, C18 grafting, Bischoff Chromatography, Germany).
(§6) The flavonoid glucosylation efficiency was determined from the following formula: Glucosylation efficiency=(Σ(area of the peak of glucosylated flavonoid(s)))/(Σ(area of the peak of glucosylated flavonoid(s))+area of the peak of residual aglycone flavonoid)×100
(§7) The flavonoid glucosylation efficiencies, expressed as a percentage, were calculated from the areas of the peaks of the various products analyzed, as described in example 1, by HPLC with a UV detector (340 nm) after 24 h of reaction.

B1 and B2 are the same in apigenin glucosylation efficiency: 0.4% for the first, 0.4% for the second.

First: B3
Second: B4
The apigenin glucosylation efficiency of the first is lower: 0.0% for the first, 0.9% for the second.

First: B5
Second: B6
The apigenin glucosylation efficiency of the first is higher: 1.9% for the first, 0.7% for the second.

First: B7
Second: B8
The apigenin glucosylation efficiency of the first is higher: 1.2% for the first, 0.3% for the second.

First: B9
Second: B10
The apigenin glucosylation efficiency of the first is higher: 0.4% for the first, 0.1% for the second.

B11 gave an apigenin glucosylation efficiency of 0.2%.

test: naringenin glucosylation acceptor reaction with recombinant glucansucrases (microplate screening); type: biochemical; conditions: sucrose 146 mM, naringenin 5 mM, 3% DMSO, 30° C., 24 h; HPLC-UV 340 nm peak areas
Procedure: as §1, §2, §3, §4, §5, §6
as §7, with “The flavonoid glucosylation efficiency was determined from the formula set out in example 2. The” for “The”, “(λ340 nm),” for “(340 nm)”

Going from B1 to B2, the naringenin glucosylation efficiency falls from 6.7% to 0.0%.

Compared with B3, B4 is lower in naringenin glucosylation efficiency: 7.2% for the first, 0.0% for the second.

Compared with B5, B6 is lower in naringenin glucosylation efficiency: 6.9% for the first, 0.0% for the second.

Compared with B7, B8 is lower in naringenin glucosylation efficiency: 5.4% for the first, 0.0% for the second.

First: B9
Second: B10
The naringenin glucosylation efficiency of the first is higher: 3.8% for the first, 0.0% for the second.

With B11 the naringenin glucosylation efficiency was 0.0%.
